# Source: IntAct's records for PubMed 30285739
# B1: WW domain-containing oxidoreductase (Homo sapiens), Q9NZC7 (parent)
# chain: MAALRYAGLDDTDSEDELPPGWEERTTKDGWVYYANHTEEKTQWEHPKTGKRKRVAGDLPYGWEQETDENGQVFFVDHINKRTTYLDPRLAFTVDDNPTKPTTRQRYDGSTTAMEILQGRDFTGKVVVVTGANSGIGFETAKSFALHGAHVILACRNMARASEAVSRILEEWHKAKVEAMTLDLALLRSVQHFAEAFKAKNVPLHVLVCNAATFALPWSLTKDGLETTFQVNHLGHFYLVQLLQDVLCRSAPARVIVVSSESHRFTDINDSLGKLDFSRLSPTKNDYWAMLAYNRSKLCNILFSNELHRRLSPRGVTSNAVHPGNMMYSNIHRSWWVYTLLFTLARPFTKSMQQGAATTVYCAAVPELEGLGGMYFNNCCRCMPSPEAQSEETARTLWALSERLIQERLGSQSG
# partner: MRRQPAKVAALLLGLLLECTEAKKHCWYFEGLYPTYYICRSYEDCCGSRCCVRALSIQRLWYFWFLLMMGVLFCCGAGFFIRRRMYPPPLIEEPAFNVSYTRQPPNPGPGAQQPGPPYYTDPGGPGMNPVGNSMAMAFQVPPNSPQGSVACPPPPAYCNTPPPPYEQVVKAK
# B2: WW domain binding protein VOPP1 (Homo sapiens), Q96AW1 (parent)
# chain: B1 partner
# partner: B1 chain
# Variants of: B1
# Conditions: with vopp1_human VOPP1, Q96AW1
row,effect of a mutation on the interaction,Variant
1,disrupting interaction strength,Y33R

# Variants of: B2
# Conditions: with wwox_human WWOX, Q9NZC7
row,effect of a mutation on the interaction,Variant
1,with no effect,Y119A
2,decreasing interaction strength,Y157A
3,decreasing interaction strength,Y165A

# Variants of: B2
# Conditions: with wwox_human WWOX
row,effect of a mutation on the interaction,Variant
1,disrupting interaction strength,Y165A
